# Results from US20100272736A1, “COMBINATION ANTIBIOTIC AND ANTIBODY THERAPY FOR THE TREATMENT OF PSEUDOMONAS AERUGINOSA INFECTION” (priority 2009, published 2010).
# Columns and labels:
# [1] = molecular target: PcrV antigen of Pseudomonas aeruginosa (recombinant PcrV) (Pseudomonas aeruginosa); experiment: biolayer interferometry, ForteBio Octet
# [2] = molecular target: PcrV on Pseudomonas aeruginosa strain PA103 (type III secretion system) (Pseudomonas aeruginosa strain PA103); experiment: cell-based or functional assay
substance,measurement,setting,value
Mab166 Fab,Kd,[1],1.4 nM
same,"IC50 (nM), TTSS-dependent cytotoxicity assay (PA103 killing of P3-X63-Ag8 myeloma cells, propidium iodide flow cytometry)",[2],53 nM
